Results as given in patent US20260116928A1, “COMPOSITIONS AND PARTICLES FOR PAYLOAD DELIVERY” (Thornhill Therapeutics, Inc., priority 2019, published 2026).

Test system: pancreatin
Assay: Pancreatin assay (stability of SEQ ID NO: 3 and exenatide formulations)
Settings: after 120 minutes of incubation with pancreatin; FIG. 11

B1: SEQ ID NO: 3: Cholix carrier protein having the sequence of SEQ ID NO: 3 (protein)
chain: MVEEALNIFDECRSPCSLTPEPGKPIQSKLSIPSDVVLDEGVLYYSMTINDEQNDIKDEDKGESIITIGEFATVRATRHYVNQDAPFGVIHLDITTENGTKTYSYNRKEGEFAINWLVPIGEDSPASIKISVDELDQQRNIIEVPKLYSIDLDNQTLEQWKTQGNVSFSVTRPEHNIAISWPSVSYKAAQKEGSRHKRWAHWHTGLALCWLVPMDAIYNYITQQNCTLGDNWFGGSYETVAGTPKVITVKQGIEQKPVEQRIHFSKGSGGSGGGGSGGGGSPRRRRSSSRPVRRRRRPRVSRRRRRRGGRRRRHHHHHH
  degradation of SEQ ID NO: 3 by pancreatin: completely degraded
